Target: T1, CD137 (4-1BB) (human, UniProt Q07011 24-255)
T1 construct: whole, on cells; also called CD137 on stimulated human PBMC
Test: flow immunocytofluorimetry, hybridoma supernatant on anti-CD3 stimulated human PBMC, FITC goat anti-mouse IgG
Source text: Binding of 5B9 scFv IgG fusion protein or 5B9 murine monoclonal antibody was detected with FITC conjugated anti-human IgG or anti-mouse IgG, respectively.

T1 sequence (Q07011 24-255): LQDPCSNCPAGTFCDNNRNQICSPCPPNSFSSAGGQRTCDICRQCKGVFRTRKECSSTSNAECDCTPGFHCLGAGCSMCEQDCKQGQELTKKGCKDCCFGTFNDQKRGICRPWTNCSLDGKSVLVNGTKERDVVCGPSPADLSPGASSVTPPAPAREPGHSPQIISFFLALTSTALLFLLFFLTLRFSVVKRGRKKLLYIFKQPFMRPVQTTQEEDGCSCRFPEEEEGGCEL

B1: 5B9 monoclonal antibody (antibody, V domains shown)
VH: QVQLKQSGPGLVQSSQSLSITCTVSGFSLTTYAVHWVRQSPGKGLEWLGVIWSGGITDYNAAFISRLSITKDDSKSQVFFKMNSLQPNDTAIYYCARNGGDNYPYYYAMDYWGQGTSVTVSS
VL: DIVMTQAAFSNPVTLGTSASISCRSSKSLLHSNGITYLYWYLQKPGQSPQLLIYQMSNLASGVPDRFSSSGSGTDFTLRISRVEAEDVGVYYCAQNLELPLTFGAGTKLELKR
notes: also called 5B9 murine monoclonal antibody
B1: binds.

— patent US20050136049A1 (TRUBION PHARMACEUTICALS, published 2005)
